The target of assay [1] is T1, human CD73 on CHO-K1 cells overexpressing human CD73 (human, UniProt P21589 27-549).
T1 construct: whole, on cells; also called CHO-K1-hCD73
T1 sequence (looked up): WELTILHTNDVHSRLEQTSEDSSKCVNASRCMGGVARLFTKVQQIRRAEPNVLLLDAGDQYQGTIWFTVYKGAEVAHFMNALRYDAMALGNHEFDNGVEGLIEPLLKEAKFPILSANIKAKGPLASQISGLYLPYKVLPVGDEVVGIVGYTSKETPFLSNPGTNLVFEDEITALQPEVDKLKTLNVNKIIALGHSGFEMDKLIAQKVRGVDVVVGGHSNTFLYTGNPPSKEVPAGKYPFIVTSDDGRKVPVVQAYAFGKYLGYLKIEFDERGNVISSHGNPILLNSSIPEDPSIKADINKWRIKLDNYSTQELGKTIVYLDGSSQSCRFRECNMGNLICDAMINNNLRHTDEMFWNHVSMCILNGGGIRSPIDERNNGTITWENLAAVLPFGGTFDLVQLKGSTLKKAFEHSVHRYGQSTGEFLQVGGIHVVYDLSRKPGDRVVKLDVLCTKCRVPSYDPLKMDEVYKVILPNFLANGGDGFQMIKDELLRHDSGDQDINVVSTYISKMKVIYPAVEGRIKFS
The experiment in a line: flow cytometry on CHO-K1 cells overexpressing human CD73 (CHO-K1-hCD73). How it is done:
(§1) In order to investigate the binding activity of the CD73×PD-L1 bispecific antibody to human CD73 and PD-L1, the binding experiment at the cellular level was performed using CHO-K1 cell strains overexpressing human CD73 or PD-L1 (CHO-K1-hCD73 or CHO-K1-hPD-L1). Briefly, the CHO-K1-hCD73 and CHO-K1-hPD-L1 cells were digested and resuspended in an F-12K complete medium, and the cell density was adjusted to 1×10⁶ cells/mL. The cells were seeded in a 96-well V-bottom plate (Corning, #3894) at 100 μL/well, followed by the addition at 100 μL/well and centrifugation at 500 g at 4° C. for 5 min, and then the supernatant was discarded. Antibodies were 3-fold diluted to a maximum final concentration of 50 nM, and a total of 8 concentrations were set. 100 μL of the diluted antibodies was added to the cells, and the cells were incubated away from light at 4° C for 1 h. Thereafter, the cells in each well were rinsed twice with 100 μL of pre-cooled PBS, and centrifuged at 500 g at 4° C. for 5 min, and then the supernatant was discarded. Then 100 μL of a fluorescent secondary antibody (goat anti-human IgG (H+L) secondary antibody, Alexa Fluor® 488 conjugate, Invitrogen, #A11013, diluted at the ratio of 1:1000) was added to each well. The plate was incubated away from light at 4° C. for 30 min. The cells in each well were then rinsed twice with 200 μL of pre-cooled PBS and centrifuged at 500 g at 4° C. for 5 min, and then the supernatant was discarded. Finally, the cells in each well were resuspended in 200 μL of pre-cooled PBS, and the fluorescence signal values were read using a BD FACS CANTOII.
For orientation: A flow cytometer gives signals particle by particle.

In assay [2] the target is T1, human CD73 on CHO-K1 cells …. The experiment in a line: flow cytometry on CHO-K1 cells overexpressing human CD73 (CHO-K1-hCD73) [continued) D]. How it is done: as §1, with “The plate was incubated away from light at 4° C. for 30 min. The cells in each well were then rinsed twice with 200 μL of pre-cooled PBS and centrifuged at 500 g at 4° C. for 5 min, and then the supernatant was discarded.” left out

The target is the same in assay [3]. The experiment in a line: flow cytometry on CHO-K1 cells overexpressing human CD73 (CHO-K1-hCD73) [continued) C]. How it is done:
as §1, with “The plate was incubated away from light at 4° C. for 30 min. The cells in each well were then rinsed twice with 200 μL of pre-cooled PBS and centrifuged at 500 g at 4° C. for 5 min, and then the supernatant was discarded.” left out

Assay [4] has as its target T2, cynomolgus monkey PD-L1 on CHO-K1 cells overexpressing cynomolgus monkey PD-L1 (cynomolgus monkey, UniProt G7PSE7 19-290).
T2 construct: also called CHO-K1/cynoPD-L1; GenScript M00573
The experiment in a line: flow cytometry on CHO-K1 cells overexpressing cynomolgus monkey PD-L1 (CHO-K1/cynoPD-L1). How it is done:
(§2) In the example, in order to study the in vitro binding activity of the PD-L1 antigen-binding protein to human/cynomolgus monkey PD-L1, cell-level binding experiments were performed using CHO-K1 cell strains overexpressing human PD-L1 (CHO-K1/hPD-L1, GenScript, M00543) or CHO-K1 cell strains overexpressing cynomolgus monkey PD-L1 (CHO-K1/cynoPD-L1, GenScript, M00573). Briefly, the PD-L1 cells were digested and resuspended in an F-12K complete medium, and the cell density was adjusted to 1×10⁶ cells/mL. The cells were seeded in a 96-well V-bottom plate (Corning, 3894) at 100 μL/well, followed by the addition of the test antigen-binding proteins serially diluted 5-fold with concentrations that were twice the final concentrations at 100 μL/well. The mixtures were well mixed. The highest final concentration of the antigen-binding proteins was 100 nM. A total of 8 concentrations were set. An isotype antibody hIgG1 iso was used as a control. The cells were incubated away from light at 4° C. for 1 h. Thereafter, the cells in each well were rinsed twice with 100 μL of pre-cooled PBS, and centrifuged at 500 g at 4° C. for 5 min, and then the supernatant was discarded. Then 100 μL of a fluorescent secondary antibody (goat anti-human IgG (H+L) secondary antibody, Alexa Fluor 488 conjugate, Invitrogen, A11013, diluted at the ratio of 1:1000) was added to each well. The plate was incubated away from light at 4° C. for 30 min. The cells in each well were then rinsed twice with 200 μL of pre-cooled PBS and centrifuged at 500 g at 4° C. for 5 min, and then the supernatant was discarded. Finally, a pre-cooled PBS was added at 200 μL/well to resuspend the cells. Fluorescence signal values were read using a BD FACS CANTOII. Fluorescence signal values were read using a flow cytometer BD FACS CANTOII or FACS ACEA, and the data were processed and analyzed using FlowJo v10 (FlowJo, LLC) software. The data were processed and analyzed by plotting using GraphPad Prism 8 software, and binding curves, EC50 values and other parameters were acquired through four-parameter nonlinear fitting.

Assay [5] concerns the target T3, human PD-L1 on CHO-K1 cells overexpressing human PD-L1 (human, UniProt Q9NZQ7 19-290).
T3 construct: whole, on cells; also called CHO-K1/hPD-L1; CHO-K1-hPD-L1
The experiment in a line: flow cytometry on CHO-K1 cells overexpressing human PD-L1 (CHO-K1/hPD-L1) [continued) F]. Here is the method:
as §2

The target of assay [6] is T3, human PD-L1 on CHO-K1 cells …. The experiment in a line: flow cytometry on CHO-K1 cells overexpressing human PD-L1 (CHO-K1-hPD-L1) [continued) E]. How it is done:
as §1, with “The plate was incubated away from light at 4° C. for 30 min. The cells in each well were then rinsed twice with 200 μL of pre-cooled PBS and centrifuged at 500 g at 4° C. for 5 min, and then the supernatant was discarded.” left out

Assay [7] has the same target. The experiment in a line: flow cytometry on CHO-K1 cells overexpressing human PD-L1 (CHO-K1/hPD-L1) [continued) D]. How it is done: as §2
Assay [8] deals with T4, human PD-L1 protein with histidine tag (ACROBiosystems #PD-1-H5258) (human, UniProt Q9NZQ7 19-238).
T4 construct: Bought protein; also called His PD-L1; human PD-L1 proteins; not shown: histidine tag
T4 sequence (Q9NZQ7 19-238 limits assumed): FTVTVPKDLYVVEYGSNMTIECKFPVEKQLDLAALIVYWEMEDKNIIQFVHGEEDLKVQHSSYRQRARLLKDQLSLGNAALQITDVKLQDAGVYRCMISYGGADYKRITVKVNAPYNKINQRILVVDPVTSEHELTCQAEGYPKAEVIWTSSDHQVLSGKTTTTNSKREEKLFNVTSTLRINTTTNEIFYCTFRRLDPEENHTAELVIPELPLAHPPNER
The experiment in a line: BLI (Octet Red96e); His-tagged human PD-L1 captured on HIS1K sensor, antibody at 60 nM; 1:1 fit. How it is done:
In this example, affinity determination was performed on the affinity-matured mutants of PR002082 using an Octet Red96e instrument. […] The binding kinetics between the antigen and the antibody was analyzed by the biolayer interferometry (BLI) technique using an Octet molecular interaction analyzer (ForteBio, model: Octet Red96e).
When the affinity of the antigen for the antibody was determined, the rotation speed of the sensor was set at 1000 rpm/min. The 2 HIS1K sensors placed in a column were first equilibrated for 10 min in test buffer, then His PD-L1 was captured with the HIS1K sensor at a capture height of 0.9-1.1 nm, then the HIS1K sensor was equilibrated for 2 min in the test buffer, then the HIS1K sensor was bound to the antigen-binding protein (60 nM and 0 nM) for 3 min, and finally the mixture was dissociated for 15 min. The HIS1K sensor was immersed in a 10 mM glycine solution (pH 1.5) for regeneration to elute the proteins bound to the sensor.
When data analysis was performed using Octet Data Analysis software (Fortebio, version 11.0), the reference signals were subtracted by a single reference mode (reference well), the data were fitted by a “1:1 Local/full fitting” method, and the kinetic parameters of the binding of the antigen to the antibody were calculated to obtain Kₒₙ (1/Ms) values, Kdis (1/s) values and KD (M) values.

The target of assay [9] is T3, human PD-L1 on CHO-K1 cells …. The experiment in a line: flow cytometry on CHO-K1 cells overexpressing human PD-L1 (CHO-K1-hPD-L1) [continued) F]. How it is done:
as §1, with “The plate was incubated away from light at 4° C. for 30 min. The cells in each well were then rinsed twice with 200 μL of pre-cooled PBS and centrifuged at 500 g at 4° C. for 5 min, and then the supernatant was discarded.” left out

Assay [10] has the same target. The experiment in a line: flow cytometry on CHO-K1 cells overexpressing human PD-L1 (CHO-K1/hPD-L1) [continued) E]. Here is the method:
as §2

For assay [11] the target is unchanged. The experiment in a line: flow cytometry on CHO-K1 cells overexpressing human PD-L1 (CHO-K1/hPD-L1). How it is done: as §2
In assay [12] the target is T2, cynomolgus monkey PD-L1 on CHO-K1 cells …. The experiment in a line: flow cytometry on CHO-K1 cells overexpressing cynomolgus monkey PD-L1 (CHO-K1/cynoPD-L1). Here is the method:
as §2
This is another data set of the same source.

Where two headings read alike, the source gives them in different places.

As usually defined, the EC50 is the midpoint of the concentration-response curve. By Kd is commonly meant the equilibrium constant for the complex coming apart. One may read the koff as the rate constant with which the complex falls apart. The term kon denotes the rate constant with which the complex forms.

T2 sequence (G7PSE7 entry or part of it limits assumed): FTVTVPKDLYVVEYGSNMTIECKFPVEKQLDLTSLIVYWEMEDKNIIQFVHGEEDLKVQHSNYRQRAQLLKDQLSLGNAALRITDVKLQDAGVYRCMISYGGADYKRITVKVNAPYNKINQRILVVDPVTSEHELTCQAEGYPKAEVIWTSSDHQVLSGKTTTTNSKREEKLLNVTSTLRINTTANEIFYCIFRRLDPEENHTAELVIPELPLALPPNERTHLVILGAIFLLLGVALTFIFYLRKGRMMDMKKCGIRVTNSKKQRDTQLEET
T3 sequence (Q9NZQ7 19-290): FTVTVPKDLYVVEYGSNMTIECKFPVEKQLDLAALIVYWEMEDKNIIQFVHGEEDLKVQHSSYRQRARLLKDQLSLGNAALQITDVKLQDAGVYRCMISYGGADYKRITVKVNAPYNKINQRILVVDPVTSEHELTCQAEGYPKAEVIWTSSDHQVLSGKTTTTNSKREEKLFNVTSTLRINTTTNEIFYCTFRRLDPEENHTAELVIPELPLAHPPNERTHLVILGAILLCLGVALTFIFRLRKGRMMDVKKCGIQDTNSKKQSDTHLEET

B1: PR000846 (antibody, human IgG1, kappa, L234A L235A, V domains shown)
VH: QVQLVESGGGVAQPGRSLSLSCAASGFTFSDYGMHWVRQAPGKGLEWVALIWYDASFEYYADSVKGRFSISRDNSKNTLYLQMNSLRAEDTAVYYCVRDAQWGSRLDYWGQGTLVTVSS
VL: KIVMTQSPATLSLSPGERATLSCRASQSVSRYLAWYQQKPGQAPRLLIYDASNRATGIPARFSGSGSGTDFTLTISSLEPEDFAVYYCQQRSNWIFTFGPGTKVDIKR
notes: Anti-CD73 IgG (human IgG1 constant region, human Ig kappa), PTM removed; also called anti-CD73 antibody PR000846; parent monoclonal antibody PR000846
For B1, the half-maximal effective concentration (EC50) turned out to be 0.352 nM in assay [1], 0.737 nM in assay [2] and 1.73 nM in assay [3].

B2: PR002082 (antibody, human IgG1, V domains shown)
VH: QVQLVESGGGVVQPGMSLRLSCAASGFTFSSYGMYWVRQAPGKGQEWVAIIWYDGTKKHYADSVKGRFTISRDNSKNTLYLEMNSLRVEDTAVYYCAKNRAIFGVVPDASDIRGQGTMVTVSS
notes: HCAb; also called PTM variant of PR000960 (N28T, N31S)
As to B2, the 50% effective concentration (EC50) in [4] stood at 1.52 nM; in assay [5], 1.31 nM; in assay [6], 1.17 nM; in [7] it was 1.23 nM; in assay [9] it was 2.93 nM; in assay [10], 1.24 nM. Also, the half-maximal effective concentration (EC50) amounted to 0.86 nM in assay [11] and 0.386 nM in assay [12]. For the same molecule, the “Maximum MFI” value is 12100 MFI in assay [4]; 430000 MFI in [5]; 387000 MFI in [7]; 381000 MFI in assay [10]; 24500 MFI in assay [11]. This molecule yielded a Kd in assay [8] of 5.61 nM. The molecule further registered a koff in assay [8] of 0.00118 s⁻¹. In assay [8], this molecule yielded a kon of 210000 M⁻¹ s⁻¹.

Source of the values: patent publication US20240269276A1 (HARBOUR BIOMED SHANGHAI, published 2024).
